Consider seven molecules from US20170008943A1 (Novo Nordisk, published 2017).

*1 amine or outer side, *2 acyl side, *3 side chain or, on linkers, in order; H or OH if unused. Side-chain parts run from the residue outwards. [ ]: non-standard residue; d: D form. The star is where a group is joined. γGlu = O=C(O)[C@H](CCC(=O)[*:2])N[*:1]; Desaminohistidyl = O=C(CCc1c[nH]cn1)*

Experiment [1] deals with T1, human glucagon receptor (human, UniProt P47871 26-477). The experiment in a line: cell-based or functional assay.
T1 sequence (P47871 26-477): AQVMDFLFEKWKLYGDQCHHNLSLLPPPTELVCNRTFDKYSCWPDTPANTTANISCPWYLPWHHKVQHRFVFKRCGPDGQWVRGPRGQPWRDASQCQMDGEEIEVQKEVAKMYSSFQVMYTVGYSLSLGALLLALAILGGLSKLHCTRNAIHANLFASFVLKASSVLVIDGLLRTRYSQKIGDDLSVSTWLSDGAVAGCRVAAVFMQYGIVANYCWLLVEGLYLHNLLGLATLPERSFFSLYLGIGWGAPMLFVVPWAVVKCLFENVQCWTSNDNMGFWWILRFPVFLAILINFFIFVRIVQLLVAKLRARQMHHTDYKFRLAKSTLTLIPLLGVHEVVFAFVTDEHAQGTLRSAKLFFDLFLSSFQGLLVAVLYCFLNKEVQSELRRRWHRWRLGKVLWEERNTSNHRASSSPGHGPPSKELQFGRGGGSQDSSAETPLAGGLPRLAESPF
The target in experiment [2] is T1, human glucagon receptor. The experiment in a line: displacement of 125I-glucagon from BHK membranes with human glucagon receptor (SPA), Assay (II)(b). (Loss of bound radioactivity is the signal in a displacement assay; it reports binding, not function.)

B1: N^ε16-[(4S)-4-[[(4S)-4-[[(4S)-4-[[(4S)-4-acetamido-4-carboxybutanoyl]amino]-4-carboxybutanoyl]amino]-4-carboxybutanoyl]amino]-4-carboxybutanoyl]-[Imp1, His3, … (peptide)
peptide: [Desaminohistidyl]SHGTFTSDYSKYLEK([γGlu-γGlu-γGlu-γGlu-Ac])RRAQEFVQWLLST-OH
SMILES: CC(=O)N[C@@H](CCC(=O)N[C@@H](CCC(=O)N[C@@H](CCC(=O)N[C@@H](CCC(=O)NCCCC[C@H](NC(=O)[C@H](CCC(=O)O)NC(=O)[C@H](CC(C)C)NC(=O)[C@H](Cc1ccc(O)cc1)NC(=O)[C@H](CCCCN)NC(=O)[C@H](CO)NC(=O)[C@H](Cc1ccc(O)cc1)NC(=O)[C@H](CC(=O)O)NC(=O)[C@H](CO)NC(=O)[C@@H](NC(=O)[C@H](Cc1ccccc1)NC(=O)[C@@H](NC(=O)CNC(=O)[C@H](Cc1c[nH]cn1)NC(=O)[C@H](CO)NC(=O)CCc1c[nH]cn1)[C@@H](C)O)[C@@H](C)O)C(=O)N[C@@H](CCCNC(=N)N)C(=O)N[C@@H](CCCNC(=N)N)C(=O)N[C@@H](C)C(=O)N[C@@H](CCC(N)=O)C(=O)N[C@@H](CCC(=O)O)C(=O)N[C@@H](Cc1ccccc1)C(=O)N[C@H](C(=O)N[C@@H](CCC(N)=O)C(=O)N[C@@H](Cc1c[nH]c2ccccc12)C(=O)N[C@@H](CC(C)C)C(=O)N[C@@H](CC(C)C)C(=O)N[C@@H](CO)C(=O)N[C@H](C(=O)O)[C@@H](C)O)C(C)C)C(=O)O)C(=O)O)C(=O)O)C(=O)O
notes: Imp written X under substitutions
As a reminder, the IC50 is the concentration that inhibits the measured activity by half. Read a low IC50 as inhibition by little substance. For B1, the “EC50 hGlucagonR (pM), CRE luciferase reporter in BHK cells” value (“EC50 hGlucagonR (pM)” for short) with human glucagon receptor [1] was determined as 105 pM. For the same molecule, the half-inhibitory concentration (IC50) with human glucagon receptor [2] was 24.4 nM.

B2: N^ε24-[(4S)-4-[[(4S)-4-[[(4S)-4-[[(4S)-4-acetamido-4-carboxybutanoyl]amino]-4-carboxybutanoyl]amino]-4-carboxybutanoyl]amino]-4-carboxybutanoyl]-[Imp1, His3, … (peptide)
peptide: [Desaminohistidyl]SHGTFTSDYSKYLESRRAQDFVK([γGlu-γGlu-γGlu-γGlu-Ac])WLLST-OH
SMILES: CC(=O)N[C@@H](CCC(=O)N[C@@H](CCC(=O)N[C@@H](CCC(=O)N[C@@H](CCC(=O)NCCCC[C@H](NC(=O)[C@@H](NC(=O)[C@H](Cc1ccccc1)NC(=O)[C@H](CC(=O)O)NC(=O)[C@H](CCC(N)=O)NC(=O)[C@H](C)NC(=O)[C@H](CCCNC(=N)N)NC(=O)[C@H](CCCNC(=N)N)NC(=O)[C@H](CO)NC(=O)[C@H](CCC(=O)O)NC(=O)[C@H](CC(C)C)NC(=O)[C@H](Cc1ccc(O)cc1)NC(=O)[C@H](CCCCN)NC(=O)[C@H](CO)NC(=O)[C@H](Cc1ccc(O)cc1)NC(=O)[C@H](CC(=O)O)NC(=O)[C@H](CO)NC(=O)[C@@H](NC(=O)[C@H](Cc1ccccc1)NC(=O)[C@@H](NC(=O)CNC(=O)[C@H](Cc1c[nH]cn1)NC(=O)[C@H](CO)NC(=O)CCc1c[nH]cn1)[C@@H](C)O)[C@@H](C)O)C(C)C)C(=O)N[C@@H](Cc1c[nH]c2ccccc12)C(=O)N[C@@H](CC(C)C)C(=O)N[C@@H](CC(C)C)C(=O)N[C@@H](CO)C(=O)N[C@H](C(=O)O)[C@@H](C)O)C(=O)O)C(=O)O)C(=O)O)C(=O)O
notes: as for B1
As for B2, the “EC50 hGlucagonR (pM)” value with human glucagon receptor [1] was found to be 12 pM. In the experiment with human glucagon receptor [2], the IC50 was 6.2 nM.

B3: N^ε24-[(4S)-4-[[(4S)-4-[[(4S)-4-[[(4S)-4-acetamido-4-carboxybutanoyl]amino]-4-carboxybutanoyl]amino]-4-carboxybutanoyl]amino]-4-carboxybutanoyl]-[Imp1, His3, … (peptide)
peptide: [Desaminohistidyl]SHGTFTSDYSKYLDLRRAQDFVK([γGlu-γGlu-γGlu-γGlu-Ac])WLLST-OH
SMILES: CC(=O)N[C@@H](CCC(=O)N[C@@H](CCC(=O)N[C@@H](CCC(=O)N[C@@H](CCC(=O)NCCCC[C@H](NC(=O)[C@@H](NC(=O)[C@H](Cc1ccccc1)NC(=O)[C@H](CC(=O)O)NC(=O)[C@H](CCC(N)=O)NC(=O)[C@H](C)NC(=O)[C@H](CCCNC(=N)N)NC(=O)[C@H](CCCNC(=N)N)NC(=O)[C@H](CC(C)C)NC(=O)[C@H](CC(=O)O)NC(=O)[C@H](CC(C)C)NC(=O)[C@H](Cc1ccc(O)cc1)NC(=O)[C@H](CCCCN)NC(=O)[C@H](CO)NC(=O)[C@H](Cc1ccc(O)cc1)NC(=O)[C@H](CC(=O)O)NC(=O)[C@H](CO)NC(=O)[C@@H](NC(=O)[C@H](Cc1ccccc1)NC(=O)[C@@H](NC(=O)CNC(=O)[C@H](Cc1c[nH]cn1)NC(=O)[C@H](CO)NC(=O)CCc1c[nH]cn1)[C@@H](C)O)[C@@H](C)O)C(C)C)C(=O)N[C@@H](Cc1c[nH]c2ccccc12)C(=O)N[C@@H](CC(C)C)C(=O)N[C@@H](CC(C)C)C(=O)N[C@@H](CO)C(=O)N[C@H](C(=O)O)[C@@H](C)O)C(=O)O)C(=O)O)C(=O)O)C(=O)O
notes: as for B1
Turning to B3, the “EC50 hGlucagonR (pM)” value with human glucagon receptor [1] is 3 pM. The molecule also returned an IC50 with human glucagon receptor [2] of 0.5 nM.

B4: N^ε20-[(4S)-4-[[(4S)-4-[[(4S)-4-[[(4S)-4-acetamido-4-carboxybutanoyl]amino]-4-carboxybutanoyl]amino]-4-carboxybutanoyl]amino]-4-carboxybutanoyl]-[Imp1, His3, … (peptide)
peptide: [Desaminohistidyl]SHGTFTSDYSKYLESRRAK([γGlu-γGlu-γGlu-γGlu-Ac])EFVQWLLST-OH
SMILES: CC(=O)N[C@@H](CCC(=O)N[C@@H](CCC(=O)N[C@@H](CCC(=O)N[C@@H](CCC(=O)NCCCC[C@H](NC(=O)[C@H](C)NC(=O)[C@H](CCCNC(=N)N)NC(=O)[C@H](CCCNC(=N)N)NC(=O)[C@H](CO)NC(=O)[C@H](CCC(=O)O)NC(=O)[C@H](CC(C)C)NC(=O)[C@H](Cc1ccc(O)cc1)NC(=O)[C@H](CCCCN)NC(=O)[C@H](CO)NC(=O)[C@H](Cc1ccc(O)cc1)NC(=O)[C@H](CC(=O)O)NC(=O)[C@H](CO)NC(=O)[C@@H](NC(=O)[C@H](Cc1ccccc1)NC(=O)[C@@H](NC(=O)CNC(=O)[C@H](Cc1c[nH]cn1)NC(=O)[C@H](CO)NC(=O)CCc1c[nH]cn1)[C@@H](C)O)[C@@H](C)O)C(=O)N[C@@H](CCC(=O)O)C(=O)N[C@@H](Cc1ccccc1)C(=O)N[C@H](C(=O)N[C@@H](CCC(N)=O)C(=O)N[C@@H](Cc1c[nH]c2ccccc12)C(=O)N[C@@H](CC(C)C)C(=O)N[C@@H](CC(C)C)C(=O)N[C@@H](CO)C(=O)N[C@H](C(=O)O)[C@@H](C)O)C(C)C)C(=O)O)C(=O)O)C(=O)O)C(=O)O
notes: as for B1
For the molecule B4, the “EC50 hGlucagonR (pM)” value with human glucagon receptor [1] was 41 pM. In the experiment with human glucagon receptor [2], this molecule displayed an IC50 of 7.6 nM.

B5: N^ε24-[(4S)-4-[[(4S)-4-[[(4S)-4-[[(4S)-4-acetamido-4-carboxybutanoyl]amino]-4-carboxybutanoyl]amino]-4-carboxybutanoyl]amino]-4-carboxybutanoyl]-[Imp1, His3, … (peptide)
peptide: [Desaminohistidyl]SHGTFTSDYSKYLESRRAQEFVK([γGlu-γGlu-γGlu-γGlu-Ac])WLLET-OH
SMILES: CC(=O)N[C@@H](CCC(=O)N[C@@H](CCC(=O)N[C@@H](CCC(=O)N[C@@H](CCC(=O)NCCCC[C@H](NC(=O)[C@@H](NC(=O)[C@H](Cc1ccccc1)NC(=O)[C@H](CCC(=O)O)NC(=O)[C@H](CCC(N)=O)NC(=O)[C@H](C)NC(=O)[C@H](CCCNC(=N)N)NC(=O)[C@H](CCCNC(=N)N)NC(=O)[C@H](CO)NC(=O)[C@H](CCC(=O)O)NC(=O)[C@H](CC(C)C)NC(=O)[C@H](Cc1ccc(O)cc1)NC(=O)[C@H](CCCCN)NC(=O)[C@H](CO)NC(=O)[C@H](Cc1ccc(O)cc1)NC(=O)[C@H](CC(=O)O)NC(=O)[C@H](CO)NC(=O)[C@@H](NC(=O)[C@H](Cc1ccccc1)NC(=O)[C@@H](NC(=O)CNC(=O)[C@H](Cc1c[nH]cn1)NC(=O)[C@H](CO)NC(=O)CCc1c[nH]cn1)[C@@H](C)O)[C@@H](C)O)C(C)C)C(=O)N[C@@H](Cc1c[nH]c2ccccc12)C(=O)N[C@@H](CC(C)C)C(=O)N[C@@H](CC(C)C)C(=O)N[C@@H](CCC(=O)O)C(=O)N[C@H](C(=O)O)[C@@H](C)O)C(=O)O)C(=O)O)C(=O)O)C(=O)O
notes: as for B1
As to B5, in the experiment with human glucagon receptor [1], the “EC50 hGlucagonR (pM)” value was 17 pM. Besides, in the experiment with human glucagon receptor [2], the half-maximal inhibitory concentration (IC50) came to 8.7 nM.

B6: N^ε24-[(4S)-4-[[(4S)-4-[[(4S)-4-[[(4S)-4-acetamido-4-carboxybutanoyl]amino]-4-carboxybutanoyl]amino]-4-carboxybutanoyl]amino]-4-carboxybutanoyl]-[Imp1, His3, … (peptide)
peptide: [Desaminohistidyl]SHGTFTSDYSKYLDLRRAQEFVK([γGlu-γGlu-γGlu-γGlu-Ac])WLLST-OH
SMILES: CC(=O)N[C@@H](CCC(=O)N[C@@H](CCC(=O)N[C@@H](CCC(=O)N[C@@H](CCC(=O)NCCCC[C@H](NC(=O)[C@@H](NC(=O)[C@H](Cc1ccccc1)NC(=O)[C@H](CCC(=O)O)NC(=O)[C@H](CCC(N)=O)NC(=O)[C@H](C)NC(=O)[C@H](CCCNC(=N)N)NC(=O)[C@H](CCCNC(=N)N)NC(=O)[C@H](CC(C)C)NC(=O)[C@H](CC(=O)O)NC(=O)[C@H](CC(C)C)NC(=O)[C@H](Cc1ccc(O)cc1)NC(=O)[C@H](CCCCN)NC(=O)[C@H](CO)NC(=O)[C@H](Cc1ccc(O)cc1)NC(=O)[C@H](CC(=O)O)NC(=O)[C@H](CO)NC(=O)[C@@H](NC(=O)[C@H](Cc1ccccc1)NC(=O)[C@@H](NC(=O)CNC(=O)[C@H](Cc1c[nH]cn1)NC(=O)[C@H](CO)NC(=O)CCc1c[nH]cn1)[C@@H](C)O)[C@@H](C)O)C(C)C)C(=O)N[C@@H](Cc1c[nH]c2ccccc12)C(=O)N[C@@H](CC(C)C)C(=O)N[C@@H](CC(C)C)C(=O)N[C@@H](CO)C(=O)N[C@H](C(=O)O)[C@@H](C)O)C(=O)O)C(=O)O)C(=O)O)C(=O)O
notes: as for B1
B6: the “EC50 hGlucagonR (pM)” value with human glucagon receptor [1] came to 1 pM. Besides, the 50% inhibitory concentration (IC50) with human glucagon receptor [2] was 0.2 nM.

B7: N^ε24-[(4S)-4-[[(4S)-4-[[(4S)-4-[[(4S)-4-acetamido-4-carboxybutanoyl]amino]-4-carboxybutanoyl]amino]-4-carboxybutanoyl]amino]-4-carboxybutanoyl]-[Imp1, His3, … (peptide)
peptide: [Desaminohistidyl]SHGTFTSDYSKYLDARRAQDFVK([γGlu-γGlu-γGlu-γGlu-Ac])WLLST-OH
SMILES: CC(=O)N[C@@H](CCC(=O)N[C@@H](CCC(=O)N[C@@H](CCC(=O)N[C@@H](CCC(=O)NCCCC[C@H](NC(=O)[C@@H](NC(=O)[C@H](Cc1ccccc1)NC(=O)[C@H](CC(=O)O)NC(=O)[C@H](CCC(N)=O)NC(=O)[C@H](C)NC(=O)[C@H](CCCNC(=N)N)NC(=O)[C@H](CCCNC(=N)N)NC(=O)[C@H](C)NC(=O)[C@H](CC(=O)O)NC(=O)[C@H](CC(C)C)NC(=O)[C@H](Cc1ccc(O)cc1)NC(=O)[C@H](CCCCN)NC(=O)[C@H](CO)NC(=O)[C@H](Cc1ccc(O)cc1)NC(=O)[C@H](CC(=O)O)NC(=O)[C@H](CO)NC(=O)[C@@H](NC(=O)[C@H](Cc1ccccc1)NC(=O)[C@@H](NC(=O)CNC(=O)[C@H](Cc1c[nH]cn1)NC(=O)[C@H](CO)NC(=O)CCc1c[nH]cn1)[C@@H](C)O)[C@@H](C)O)C(C)C)C(=O)N[C@@H](Cc1c[nH]c2ccccc12)C(=O)N[C@@H](CC(C)C)C(=O)N[C@@H](CC(C)C)C(=O)N[C@@H](CO)C(=O)N[C@H](C(=O)O)[C@@H](C)O)C(=O)O)C(=O)O)C(=O)O)C(=O)O
notes: as for B1
B7: the “EC50 hGlucagonR (pM)” value in the experiment with human glucagon receptor [1] was found to be 4 pM. The same molecule came in with an IC50 with human glucagon receptor [2] of 0.9 nM.
